Laboratory results published in patent publication US20040018558A1.

Legend:
[1] = molecular target: light-activated rhodopsin (bovine rod outer segment membranes) (bovine) (UniProt P02699); assay: ELISA, MBP fusion protein on immobilised light-activated rhodopsin
[2] = molecular target: human thrombin receptor (PAR1) (human) (UniProt P25116); assay: ELISA, purified MBP-Gαq on purified reconstituted PAR1 with thrombin receptor activating peptide
human thrombin receptor (PAR1) (human), sequence (P25116 42-425): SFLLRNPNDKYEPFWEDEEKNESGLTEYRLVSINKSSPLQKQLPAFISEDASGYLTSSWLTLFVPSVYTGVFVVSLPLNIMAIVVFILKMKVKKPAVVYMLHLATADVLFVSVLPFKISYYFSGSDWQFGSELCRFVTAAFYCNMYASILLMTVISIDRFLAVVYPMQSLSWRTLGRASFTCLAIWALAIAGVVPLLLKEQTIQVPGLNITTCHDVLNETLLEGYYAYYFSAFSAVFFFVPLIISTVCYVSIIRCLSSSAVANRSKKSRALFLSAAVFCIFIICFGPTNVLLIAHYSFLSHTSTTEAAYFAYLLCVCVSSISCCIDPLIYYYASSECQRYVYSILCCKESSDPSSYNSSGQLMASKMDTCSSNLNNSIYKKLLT

light-activated rhodopsin (bovine rod outer segment membranes) (bovine), sequence (P02699 whole entry, the tested form may be a part): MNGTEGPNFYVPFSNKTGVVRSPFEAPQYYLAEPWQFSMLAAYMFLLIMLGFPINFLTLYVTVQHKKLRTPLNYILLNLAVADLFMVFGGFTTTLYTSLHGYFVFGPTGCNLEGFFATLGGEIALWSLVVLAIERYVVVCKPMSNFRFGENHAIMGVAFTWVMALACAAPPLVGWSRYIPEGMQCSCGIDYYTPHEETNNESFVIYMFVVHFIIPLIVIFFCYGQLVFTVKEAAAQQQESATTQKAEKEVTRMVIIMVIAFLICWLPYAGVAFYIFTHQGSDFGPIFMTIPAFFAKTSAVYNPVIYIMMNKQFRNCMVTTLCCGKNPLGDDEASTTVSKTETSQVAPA

| IC50 [1] [µM] | IC50 [2] [µM] | Substance |
| --- | --- | --- |
| 6 |  | MBP-Gαt340-350K341R fusion protein (pELM17) |
|  | 0.214 | maltose binding protein-Gαq (MBP-Gαq), native Gq peptide fusion |
